Where “and” joins values, the source holds several entries; their conditions need not be identical. Identical values can stand only once. Entries after “also recorded” stand apart in the source; their conditions may differ. Like-named read-outs stand apart in the source and are kept apart here.
What was measured:
[1] = CPT-11 conversion to SN-38, fluorescent HPLC detection, conditioned media of transiently expressed BChE variants; assay type: biochemical; conditions: for Fold improvement in CPT-11 conversion: compared to wild-type butyrylcholinesterase, conditioned media exposed to 20 mM CPT-11 for 72 hours at 37° C., SN-38 by HPLC, conservative values; for CPT-11 conversion to SN-38 (SN-38 formation by HPLC), in words: conditioned media, 20 mM CPT-11, 72 hours, 37° C., versus mock / wild-type
Method: Butyrylcholinesterase variants were assayed for CPT-11 conversion activity using fluorescent High Performance Liquid Chromotography (HPLC) detection of SN-38 formation as described in Dodds and Rivory, Mol. Pharmacol. 56: 1346-1353 (1999), which is incorporated herein by reference. Briefly, conditioned media from transiently expressed BChE variants were exposed to 20 mM CPT-11 for 72 hours at 37° C. and analyzed by HPLC for SN-38 formation (peak at about 4 minutes column retention time).

[2] = cited from earlier work; for Km: Humerickhouse et al. 2000, read-out: Km (CPT-11 conversion)
[3] = BChE-mediated CPT-11 hydrolysis, SN38 quantitated by reverse-phase HPLC with fluorescence detection; Km by Hofstee plot; assay type: biochemical; conditions: for increase in CPT-11 hydrolysis over wild-type BChE: SN38 peak AUC, wild type 20 μg, BChE.4-1 0.05 μg; for improvement in the Km for CPT-11: versus wild-type / native serum BChE
Method: BChE plasmid variants were expressed transiently in the human embryonic kidney cell line 293T and assayed for activity at 72 hours post-transfection. Primary screening of variants was performed by indirect measurement of enzymatic activation of CPT-11 (FIG. 2) in SW48 colon carcinoma cell cytotoxicity assays. […] Functional hits identified in these assays were characterized by sequence analysis of the corresponding DNA from the original preps. […] Enzyme was incubated at 37° C. for 24 hours with CPT-11 over a range of concentrations from 1-80 μM. […] Velocity (v) is in light absorbance units at 540 nm. Substrate concentration [s] is μM CPT-11.
Samples were acidified and resolved by reverse-phase HPLC on a NovaPak C18 column to separate SN38 from unactivated CPT-11. SN38 peak area under the curve (AUC) was used to compare CPT-11 activation by the wild-type enzyme to the optimized BChE.4-1 variant.

Molecule	Fold improvement in CPT-11 conversion [1]	CPT-11 conversion to SN-38 (SN-38 formation by HPLC), in words [1]	other results
F227A/L286H	>35 fold	increased CPT-11 conversion to SN-38	–
F227A/L286S	>50 fold	significant conversion; also recorded: increased CPT-11 conversion to SN-38	Fold improvement in CPT-11 conversion ([1]; listed as F227A/L268S): ≥ 50 fold
hCE-1	–	–	Km [2]: 43 µM
F227A (protein, synthetic butyrylcholinesterase variant; VARIANT 227: Xaa = Ala) EDDIIIATKNGKVRGMNLTVFGGTVTAFLGIPYAQPPLGRLRFKKPQSLTKWSDIWNATKYANSCCQNIDQSFPGFHGSEMWNPNTDLSEDCLYLNVWIPAPKPKNATVLIWIYGGGFQTGTSSLHVYDGKFLARVERVIVVSMNYRVGALGFLALPGNPEAPGNMGLFDQQLALQWVQKNIAAFGGNPKSVTLFGESAGAASVSLHLLSPGSHSLFTRAILQSGSXNAPWAVTSLYEARNRTLNLAKLTGCSRENETEIIKCLRNKDPQEILLNEAFVVPYGTPLSVNFGPTVDGDFLTDMPDILLELGQFKKTQILVGVNKDEGTAFLVYGAPGFSKDNNSIITRKEFQEGLKIFFPGVSEFGKESILFHYTDWVDDQRPENYREALGDVVGDYNFICPALEFTKKFSEWGNNAFFYYFEHRSSKLPWPEWMGVMHGYEIEFVFGLPLERRDNYTKAEEILSRSIVKRWANFAKYGNPNETQNNSTSWPVFKSTEQKYLTLNTESTRIMTKLRAQQCRFWTSFFPKVLEMTGNIDEAEWEWKAGFHRWNNYMMDWKNQFNDYTSKKESCVGL	–	produced a small amount of SN-38; also recorded: increased CPT-11 conversion to SN-38	–
F227A/L286W (protein, synthetic butyrylcholinesterase variant) EDDIIIATKNGKVRGMNLTVFGGTVTAFLGIPYAQPPLGRLRFKKPQSLTKWSDIWNATKYANSCCQNIDQSFPGFHGSEMWNPNTDLSEDCLYLNVWIPAPKPKNATVLIWIYGGGFQTGTSSLHVYDGKFLARVERVIVVSMNYRVGALGFLALPGNPEAPGNMGLFDQQLALQWVQKNIAAFGGNPKSVTLFGESAGAASVSLHLLSPGSHSLFTRAILQSGSANAPWAVTSLYEARNRTLNLAKLTGCSRENETEIIKCLRNKDPQEILLNEAFVVPYGTPWSVNFGPTVDGDFLTDMPDILLELGQFKKTQILVGVNKDEGTAFLVYGAPGFSKDNNSIITRKEFQEGLKIFFPGVSEFGKESILFHYTDWVDDQRPENYREALGDVVGDYNFICPALEFTKKFSEWGNNAFFYYFEHRSSKLPWPEWMGVMHGYEIEFVFGLPLERRDNYTKAEEILSRSIVKRWANFAKYGNPNETQNNSTSWPVFKSTEQKYLTLNTESTRIMTKLRAQQCRFWTSFFPKVLEMTGNIDEAEWEWKAGFHRWNNYMMDWKNQFNDYTSKKESCVGL	>42 fold	increased CPT-11 conversion to SN-38	–
F227A/S287P (protein, synthetic butyrylcholinesterase variant; VARIANT 227: Xaa = Ala; VARIANT 287: Xaa = Pr0) EDDIIIATKNGKVRGMNLTVFGGTVTAFLGIPYAQPPLGRLRFKKPQSLTKWSDIWNATKYANSCCQNIDQSFPGFHGSEMWNPNTDLSEDCLYLNVWIPAPKPKNATVLIWIYGGGFQTGTSSLHVYDGKFLARVERVIVVSMNYRVGALGFLALPGNPEAPGNMGLFDQQLALQWVQKNIAAFGGNPKSVTLFGESAGAASVSLHLLSPGSHSLFTRAILQSGSANAPWAVTSLYEARNRTLNLAKLTGCSRENETEIIKCLRNKDPQEILLNEAFVVPYGTPLXVNFGPTVDGDFLTDMPDILLELGQFKKTQILVGVNKDEGTAFLVYGAPGFSKDNNSIITRKEFQEGLKIFFPGVSEFGKESILFHYTDWVDDQRPENYREALGDVVGDYNFICPALEFTKKFSEWGNNAFFYYFEHRSSKLPWPEWMGVMHGYEIEFVFGLPLERRDNYTKAEEILSRSIVKRWANFAKYGNPNETQNNSTSWPVFKSTEQKYLTLNTESTRIMTKLRAQQCRFWTSFFPKVLEMTGNIDEAEWEWKAGFHRWNNYMMDWKNQFNDYTSKKESCVGL	>6 fold	increased CPT-11 conversion to SN-38	–
4-1 variant (protein, synthetic butyrylcholinesterase variant; VARIANT 227: Xaa = Ala) EDDIIIATKNGKVRGMNLTVFGGTVTAFLGIPYAQPPLGRLRFKKPQSLTKWSDIWNATKYANSCCQNIDQSFPGFFGSEMWNPNTDLSEDCLYLNVWIPAPKPKNATVLIWIYGGGFQTGTSSLHVYDGKFLARVERVIVVSMNYRVGALGFLALPGNPEAPGNMGLFDQQLALQWVQKNIAAFGGNPKSVTLFGESAGAASVSLHLLSPGSHSLFTRAILQSGSXNAPWAVTSLYEARNRTLNLAKLTGCSRENETEIIKCLRNKDPQEILLNEAFVVPYGTNLSVNFGPTVDGDFLTDMPDILLELGQFKKTQILVGVNKDEGTAFLAYGAPGFSKDNNSIITRKEFQEGLKIFFPGVSEFGKESILFHYTDWVDDQRPENYREALGDVVGDYNFICPALEFTKKFSEWGNNAFFYYFEHRSSKLPWPEWMGVMHGYEIEFVFGLPLERRDNYTKAEEILSRSIVKRWANFAKYGNPNETQNNSTSWPVFKSTEQKYLTLNTESTRIMTKLRAQQCRFWTSFFPKVLEMTGNIDEAEWEWKAGFHRWNNYMMDWKNQFNDYTSKKESCVGL	–	–	Km ([3]; 37° C., 24 hours, CPT-11 1-80 μM, Hofstee plot): ~7 µM and 6.9 µM; increase in CPT-11 hydrolysis over wild-type BChE ([3]; 37° C., 24 hours): > 3000 fold; increase in CPT-11 hydrolysis over wild-type BChE ([3]; 37° C., 24 hours, listed as H77F, F227A, P285N, V331A): at least a three thousand-fold; increase in CPT-11 hydrolysis over wild-type BChE ([3]; 37° C., 24 hours, listed as SEQ ID NO: 180): at least a three thousand-fold; improvement in the Km for CPT-11 [3]: 5-6 fold; improvement in the Km for CPT-11 ([3]; listed as BChE variant 4-1): 5-6 fold and > 5 fold
F227A/T284A (protein, synthetic butyrylcholinesterase variant; VARIANT 227: Xaa = Ala; VARIANT 284: Xaa = Ala) EDDIIIATKNGKVRGMNLTVFGGTVTAFLGIPYAQPPLGRLRFKKPQSLTKWSDIWNATKYANSCCQNIDQSFPGFHGSEMWNPNTDLSEDCLYLNVWIPAPKPKNATVLIWIYGGGFQTGTSSLHVYDGKFLARVERVIVVSMNYRVGALGFLALPGNPEAPGNMGLFDQQLALQWVQKNIAAFGGNPKSVTLFGESAGAASVSLHLLSPGSHSLFTRAILQSGSXNAPWAVTSLYEARNRTLNLAKLTGCSRENETEIIKCLRNKDPQEILLNEAFVVPYGXPLSVNFGPTVDGDFLTDMPDILLELGQFKKTQILVGVNKDEGTAFLVYGAPGFSKDNNSIITRKEFQEGLKIFFPGVSEFGKESILFHYTDWVDDQRPENYREALGDVVGDYNFICPALEFTKKFSEWGNNAFFYYFEHRSSKLPWPEWMGVMHGYEIEFVFGLPLERRDNYTKAEEILSRSIVKRWANFAKYGNPNETQNNSTSWPVFKSTEQKYLTLNTESTRIMTKLRAQQCRFWTSFFPKVLEMTGNIDEAEWEWKAGFHRWNNYMMDWKNQFNDYTSKKESCVGL	>7 fold	increased CPT-11 conversion to SN-38	–
hCE-2 (protein, UniProt O00748 27-559, looked up) Cocaine esterase: QDSASPIRTTHTGQVLGSLVHVKGANAGVQTFLGIPFAKPPLGPLRFAPPEPPESWSGVRDGTTHPAMCLQDLTAVESEFLSQFNMTFPSDSMSEDCLYLSIYTPAHSHEGSNLPVMVWIHGGALVFGMASLYDGSMLAALENVVVVIIQYRLGVLGFFSTGDKHATGNWGYLDQVAALRWVQQNIAHFGGNPDRVTIFGESAGGTSVSSLVVSPISQGLFHGAIMESGVALLPGLIASSADVISTVVANLSACDQVDSEALVGCLRGKSKEEILAINKPFKMIPGVVDGVFLPRHPQELLASADFQPVPSIVGVNNNEFGWLIPKVMRIYDTQKEMDREASQAALQKMLTLLMLPPTFGDLLREEYIGDNGDPQTLQAQFQEMMADSMFVIPALQVAHFQCSRAPVYFYEFQHQPSWLKNIRPPHMKADHGDELPFVFRSFFGGNYIKFTEEEEQLSRKMMKYWANFARNGNPNGEGLPHWPLFDQEEQYLQLNLQPAVGRALKAHRLQFWKKALPQKIQELEEPEERHTEL	–	–	catalytic efficiency relative to hCE-1 ([2]; CPT-11 conversion): 60 fold; Km [2]: 3.4 µM; rate of conversion of CPT-11 to SN38 relative to hCE-1 ([2]; at pharmacologically relevant concentrations of the drug (~1-10 μM)): 25-30 fold
